According to patent publication US7005283B2, “Cytochrome P450 oxygenases and their uses” (Washington State University Research Foundation, priority 1999, dated 2006):

How the values were obtained:
[1] = type: binding, Saccharomyces cerevisiae
Procedure, shortened: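 Full-length Taxus cytochrome P450 clones in pYeDP60 were expressed in yeast, with induction by galactose (10% final) for about 24 h. Whole cells were treated with CO, and CO-difference spectra were recorded spectrophotometrically against untreated cells.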

[2] = In vivo assay of yeast cells expressing recombinant oxygenases, radio-HPLC, substrate taxadiene; type: cell-based, Saccharomyces cerevisiae; settings: assayed with Taxadiene; graded symbols, key not given
[3] = In vitro enzyme assay for taxoid oxygenase activity (baculovirus-Spodoptera expressed enzyme), substrate taxadiene; type: biochemical, Spodoptera frugiperda; settings: 30 μM substrate, 32° C., 12 hours
Description: The standard enzyme assay for assessing oxygenase activity of the recombinant cytochrome P450 employed the following conditions: 25 mM HEPES buffer, pH 7.5, 400 μM NADPH, 300 μg protein and 30 μM substrate (taxadiene, taxadienol, or taxadienyl acetate) in a total volume of 1 mL. Samples were incubated at 32° C. for 12 hours, after which 1 mL of saturated NaCl solution was added to the reaction mixture, followed by extraction of the product with 2 mL of hexane/ethyl acetate (4:1, v/v). […]
For the functional characterization of clone F16, the recombinant baculovirus carrying the cytochrome P450 clone F16 ORF was coexpressed with a recombinant baculovirus carrying the Taxus NADPH:cytochrome P450 reductase gene. […] The viral titers were determined according to the End-Point Dilution method (O'Reilly et al., Baculovirus Expression Vectors, A Laboratory Manual, New York, N.Y., Freeman and Company, 1992). […]

[4] = In vitro enzyme assay for taxoid oxygenase activity (baculovirus-Spodoptera expressed enzyme), substrate taxadienol; type: biochemical, Spodoptera frugiperda
Description: The standard enzyme assay for assessing oxygenase activity of the recombinant cytochrome P450 employed the following conditions: 25 mM HEPES buffer, pH 7.5, 400 μM NADPH, 300 μg protein and 30 μM substrate (taxadiene, taxadienol, or taxadienyl acetate) in a total volume of 1 mL. Samples were incubated at 32° C. for 12 hours, after which 1 mL of saturated NaCl solution was added to the reaction mixture, followed by extraction of the product with 2 mL of hexane/ethyl acetate (4:1, v/v). The extracts were dried and dissolved in acetonitrile for product analysis by radio-HPLC [column: Alltech Econosil C18 5 μm particle size (250 mm×4.6 mm): solvent system A: 0.01% (v/v) H3PO4, 2% acetonitrile, 97.99% H2O; solvent system B: 0.01% H3PO4, 99.99 acetonitrile; gradient: 0–5 minutes, 100% A; 5–15 minutes, 0–50% B; 15–55 minutes, 50–100% B; 55–65 minutes, 100% B; 65–70 minu A; 70–75 minutes, 100% A; flow rate 1 mL/minute; for detection, a radio-chromatography detector (Flow-One®-Beta Series A-100, Radiomatic) was used].
For the functional characterization of clone F16, the recombinant baculovirus carrying the cytochrome P450 clone F16 ORF was coexpressed with a recombinant baculovirus carrying the Taxus NADPH:cytochrome P450 reductase gene. To the insect cell suspension, the two recombinant baculoviruses were added at a multiplicity of infection of 1–5. The viral titers were determined according to the End-Point Dilution method (O'Reilly et al., Baculovirus Expression Vectors, A Laboratory Manual, New York, N.Y., Freeman and Company, 1992). For infection, the cells were incubated for 1 hour at 28° C. and 80 rpm. The cell culture volume was brought to 50 mL with standard cell culture medium, and hemin (Sigma) was added to a final concentration of 2 μg/mL. The infected cells were incubated for 48 hours in a gyratory shaker at 28° C. and 140 rpm. The infected insect cells were harvested from the cell culture medium by centrifugation as described above, and washed twice with PBS (50 mM KH2PO4, pH 7.5, 0.9% NaCl). […]

B1: clone F16: Taxus cuspidata cytochrome P450 taxane 9α-hydroxylase, full-length clone, SEQ ID NO: 82 (nt) / 88 (aa) (protein, listed as Taxus cuspidata)
chain: MDALKQLEVSPSILFVTLAVMAGIILFFRSKRHSSVKLPPGNLGFPLVGETLQFVRSLGSSTPQQFIEERMSKFGDVFKTSIIGHPTVVLCGPAGNRLVLSNENKLVQMSWPSSMMKLIGEDCLGGKTGEQHRIVRAALTRFLGPQALQNHFAKMSSGIQRHINEKWKGKDEATVLPLVKDLVFSVASRLFFGITEEHLQEQLHNLLEVILVGSFSVPLNIPGFSYHKAIQARATLADIMTHLIEKRRNELRAGTASENQDLLSVLLTFTDERGNSLADKEILDNFSMLLHGSYDSTNSPLTMLIKVLASHPESYEKVAQEQFGILSTKMEGEEIAWKDLKEMKYSWQVVQETLRMYPPIFGTFRKAITDIHYNGYTIPKGWKLLWTTYSTQTKEEYFKDADQFKPSRFEEEGKHVTPYTYLPFGGGMRVCPGWEFAKMETLLFLHHFVKAFSGLKAIDPNEKLSGKPLPPLPVNGLPIKLYSRS
For B1, the CO diff. spec. [1] was “+++”, the “product identified HPLC peak” value [2] was “No” and the “conversion of taxadiene to an oxygenated product” value [3] was “not converted detectably”. The “conversion of taxa-4(20),11(12)-dien-5α-ol” value ([4]; 30 μM substrate, 32° C., 12 hours, GC-MS) was “converted most efficiently to a diol product”, the “enzyme function assigned from screening” value ([4]; baculovirus-Spodoptera expression) was “cytochrome P450 taxane-9α-hydroxylase” and the “identity of the product of the oxygenase reaction with taxadienol” value ([4]; preparative incubation, 1H- and 13C-NMR) was “taxa-4(20),11(12)-dien-5α,9α-diol”.
